Results from patent publication US20210214454A1 (SYMPHOGEN A S, published 2021).
Substitutions are numbered along the chain they refer to.

B1: antibody 15833 (antibody, human IgG1, kappa, L234A L235A, V domains shown)
VH: QVQLVESGGGVVQPGRSLRLSCAASGFTFSNYAMHWVRQAPGKGLEWVALISFDGSYKYYADSVKGRFTISRDNSKNTLYLQMNSLRAEDTAVYYCVKDAGYSSSWFFDYWGQGTLVTVSS
VL: DIQMTQSPSSVSASVGDRVTITCRASQDISSWLAWYQQKPGKAPKLLIYAASSLQSGVPSRFSGSGSGTDFTLTISSLQPEDFGNYYCQQANSFPWTFGQGTKVEIKR
notes: Fully human IgG1-LALA / kappa
B2: antibody 16154 (antibody, human IgG1, kappa, L234A L235A, V domains shown)
VH: EVQLVESGGGLVQPGGSLRLSCAASGFTFTSYWMSWVRQAPGKGLEWVANIKQDGSEKYYVDSVKGRFTISRDNAKNSLYLQMNSLRAEDTAVYYCARGPVAGPYWYFDLWGRGTLVTVSS
VL: AIQMTQSPSSLSASVGDRVTITCRASQGIRNDLGWYQQKPGKAPKLLIYAASSLQSGVPSRFSGSGSGTDFTLTISSLQPEDFATYYCLQDYHYPLTFGGGTKVEIKR
notes: Fully human IgG1-LALA / kappa
B3: antibody 15888 (antibody, human IgG1, kappa, L234A L235A, V domains shown)
VH: QVQLQQSGPGLVKPSQTLSLTCAISGDSVSSNSATWNWIRQSPSRGLEWLGRTYYRSKWYNDYAVSVKSRITINPDTSKNQFSLQLNSVTPEDTAVYYCARGGHSIAVAGPFDYWGQGTLVTVSS
VL: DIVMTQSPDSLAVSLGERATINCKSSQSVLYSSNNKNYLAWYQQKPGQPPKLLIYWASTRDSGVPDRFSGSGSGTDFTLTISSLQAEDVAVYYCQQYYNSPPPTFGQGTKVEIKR
notes: Fully human IgG1-LALA / kappa
B4: antibody 17303 (antibody, human IgG1, kappa, L234A L235A, V domains shown)
VH: EVQLVESGGGLVQPGRSLRLSCAASGFTFDDHAMHWVRQAPGKGLEWVSGISWNSGSIGYAESVKGRFTISRDNAKNSLYLQMNSLRAEDTALYYCAKDRRGPFDYWGQGTLVTVSS
VL: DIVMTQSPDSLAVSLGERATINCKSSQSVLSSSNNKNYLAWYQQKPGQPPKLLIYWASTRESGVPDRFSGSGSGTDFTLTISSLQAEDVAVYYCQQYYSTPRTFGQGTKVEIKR
notes: Fully human IgG1-LALA / kappa
B5: antibody 15948 (antibody, human IgG1, kappa, L234A L235A, V domains shown)
VH: QVQLVESGGGVVQPGRSLRLSCAASGFTFSIYGMHWVRQAPGKGLEWVAVISYDGSNKYYADSVKGRFTISRDNSKNTLYLQMNSLRAEDTAVYYCAKDPDYYGSGSYYPDWGQGTLVTVSS
VL: DIQLTQSPSFLSASVGDRVTITCRASQGISSYLAWYQQKPGKAPKLLIYAASTLQSGVPSRFSGSGSGTEFTLTISSLQPEDFATYYCQQVKSYPLTFGGGTKVEIKR
notes: Fully human IgG1-LALA / kappa
B6: antibody 16040 (antibody, human IgG1, kappa, L234A L235A, V domains shown)
VH: QVQLVESGGGVVQPGRSLRLSCAASGFTFSIYGMHWVRQAPGKGLEWVAVISYDGSNKYYADSVKGRFTISRDNSKNTLYLQMNSLRAEDTAVYYCAAGNWFDPWGQGTLVTVSS
VL: B5 VL with V91L, K92N, S93R
notes: Fully human IgG1-LALA / kappa

Biological target: T1, cynomolgus CD40 protein expressed on CHO-S cells (cynomolgus, UniProt G7PG38 21-278)
T1 construct: whole, on cells
Test: flow cytometry on CHO-S cells transiently expressing cynomolgus CD40; AF647 anti-human IgG (H+L) secondary; GeoMean RL1-H
Protocol: (§1) The anti-CD40 antibodies were incubated with hamster CHO-S cells transiently expressing human or cynomolgus CD40 for 30 minutes at 4° C. The cells were washed twice and subsequently incubated for an additional 20 minutes with AF647-conjugated secondary anti-human IgG (H+L) antibody. After the washing step, antibody binding was detected using the high-throughput flow cytometer iQue Screener PLUS (Sartorius) measuring the GeoMean of AF647 signal in each well. Every concentration was assayed in triplicate and a 12-point titration curve was generated for each antibody.

Binder | EC50 (read off the curve)
B1 | ~0.2 µg/mL
B2 | ~0.008 µg/mL
B3 | ~0.02 µg/mL
B4 | ~0.02 µg/mL
B5 | ~0.4 µg/mL

Biological target: T2, human CD40 protein expressed on cells (human, UniProt P25942 21-277)
T2 construct: also called human CD40 on CHO-S cells; CD40 of CD40-NFkB-luciferase reporter cells (Promega CD40 Bioassay kit)
Test: flow cytometry on CHO-S cells transiently expressing human CD40; AF647 anti-human IgG (H+L) secondary; GeoMean RL1-H
Protocol: as §1

T2 sequence (P25942 21-277 limits assumed): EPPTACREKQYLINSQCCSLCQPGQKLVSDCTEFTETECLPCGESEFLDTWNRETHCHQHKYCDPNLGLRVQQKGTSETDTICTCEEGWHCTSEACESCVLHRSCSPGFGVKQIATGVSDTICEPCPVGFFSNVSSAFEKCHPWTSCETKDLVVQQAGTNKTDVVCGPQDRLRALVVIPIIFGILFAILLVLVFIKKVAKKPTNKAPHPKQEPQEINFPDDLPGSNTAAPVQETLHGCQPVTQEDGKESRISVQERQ

Binder | EC50 (read off the curve)
B1 | ~0.1 µg/mL
B2 | ~0.008 µg/mL

Biological target: T3, cynomolgus CD40 extracellular domain (ECD) (cynomolgus)
T3 construct: extracellular domain; also called Cynomolgus CD40 ECD
Test: SPR (IBIS MX96), antibody captured, monovalent CD40 ECD in solution

Binder | Kd | koff | kon
B1 | 1.5 nM | 0.00012 s⁻¹ | 80000 M⁻¹ s⁻¹
B2 | 4.6 nM | 0.00051 s⁻¹ | 110000 M⁻¹ s⁻¹
B3 | 0.44 nM | 0.00014 s⁻¹ | 330000 M⁻¹ s⁻¹
B4 | 9.8 nM | 0.0014 s⁻¹ | 150000 M⁻¹ s⁻¹
B5 | 57 nM | 0.0021 s⁻¹ | 37000 M⁻¹ s⁻¹
B6 | 16 nM | 0.0013 s⁻¹ | 81000 M⁻¹ s⁻¹

Biological target: T4, His-tagged human CD40 extracellular domain (ECD) (human, UniProt P25942 21-193)
T4 construct: Bought from Sino Biological; also called human CD40 ECD; CD40-his ECD antigen; not shown: His tag
Test: as above

T4 sequence (P25942 21-193): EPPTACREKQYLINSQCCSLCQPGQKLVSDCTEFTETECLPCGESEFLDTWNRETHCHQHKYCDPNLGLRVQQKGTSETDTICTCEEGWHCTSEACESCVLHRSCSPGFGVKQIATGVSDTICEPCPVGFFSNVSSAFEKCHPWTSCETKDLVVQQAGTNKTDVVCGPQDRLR

Binder | Kd | koff | kon
B1 | 2.8 nM | 0.00012 s⁻¹ | 41000 M⁻¹ s⁻¹
B2 | 5.7 nM | 0.00031 s⁻¹ | 53000 M⁻¹ s⁻¹
B3 | 0.75 nM | 0.00014 s⁻¹ | 190000 M⁻¹ s⁻¹
B4 | 7.8 nM | 0.00038 s⁻¹ | 49000 M⁻¹ s⁻¹
B5 | 3.1 nM | 0.00031 s⁻¹ | 99000 M⁻¹ s⁻¹
B6 | 7 nM | 0.00036 s⁻¹ | 52000 M⁻¹ s⁻¹
